Experimental data taken from US20140256041A1.

Molecular target: Human GPR49 (LGR5), full length, on cells (human) (UniProt O75473)
Assay: cell-based or functional assay

Human GPR49 (LGR5), full length, on cells (human), sequence (O75473 22-907 limits assumed): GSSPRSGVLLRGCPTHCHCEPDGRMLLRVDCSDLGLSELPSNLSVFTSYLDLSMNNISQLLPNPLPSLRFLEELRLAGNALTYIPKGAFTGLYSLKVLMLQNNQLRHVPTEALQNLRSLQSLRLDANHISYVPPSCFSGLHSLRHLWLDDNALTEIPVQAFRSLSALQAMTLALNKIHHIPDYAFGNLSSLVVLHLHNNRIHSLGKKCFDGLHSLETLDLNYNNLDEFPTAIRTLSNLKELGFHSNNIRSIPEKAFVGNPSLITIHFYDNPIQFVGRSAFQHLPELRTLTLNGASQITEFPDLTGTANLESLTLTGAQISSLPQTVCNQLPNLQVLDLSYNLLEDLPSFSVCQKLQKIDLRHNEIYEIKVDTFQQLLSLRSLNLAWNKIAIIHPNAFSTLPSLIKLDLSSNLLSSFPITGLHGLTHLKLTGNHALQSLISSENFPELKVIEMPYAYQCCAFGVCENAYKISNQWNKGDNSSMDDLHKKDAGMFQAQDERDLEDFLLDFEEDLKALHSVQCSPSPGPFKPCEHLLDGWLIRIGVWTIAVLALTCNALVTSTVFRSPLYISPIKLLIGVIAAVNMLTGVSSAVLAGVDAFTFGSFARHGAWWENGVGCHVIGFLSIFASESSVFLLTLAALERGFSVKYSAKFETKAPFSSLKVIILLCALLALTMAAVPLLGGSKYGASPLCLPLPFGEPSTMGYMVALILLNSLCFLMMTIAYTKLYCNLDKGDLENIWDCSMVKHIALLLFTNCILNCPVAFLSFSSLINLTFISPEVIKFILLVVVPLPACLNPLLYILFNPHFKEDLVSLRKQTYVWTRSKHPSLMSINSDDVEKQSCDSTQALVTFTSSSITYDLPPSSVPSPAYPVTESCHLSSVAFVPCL

## R-spondin 1 (ligand)
  increase in proliferation, GPR49-3T3 clone 28: 4 fold
